Experimental data from patent US20040013674A1 (APOXIS, published 2004).
Values belong to the binder of their own block, whether it stands above or below them.

Columns and labels:
[1] = target: T1, N-terminally FLAG-tagged full length human TACI, expressed on 293EBNA cells (plasmid pJST552) (human, UniProt O14836 1-293); experiment: FACS on 293EBNA cells transfected with pJST552; rabbit anti-murine APRIL and donkey anti-rabbit-PE
T1 construct: also called flag-tagged full length TACI; TACI transfected cells; not shown: N-terminal FLAG tag (and any leader) of the pJST552 insert
T1 sequence: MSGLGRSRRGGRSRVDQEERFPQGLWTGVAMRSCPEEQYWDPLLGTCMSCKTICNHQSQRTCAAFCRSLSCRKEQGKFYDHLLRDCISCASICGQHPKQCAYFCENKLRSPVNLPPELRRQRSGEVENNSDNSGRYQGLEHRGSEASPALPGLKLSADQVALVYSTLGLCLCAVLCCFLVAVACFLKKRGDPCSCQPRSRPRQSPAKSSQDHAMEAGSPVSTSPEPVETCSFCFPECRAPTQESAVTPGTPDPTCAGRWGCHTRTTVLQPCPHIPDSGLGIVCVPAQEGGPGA
Protocol: FIG. 8 is a schematic representation of purified myc-tagged murine APRIL binding to TACI transfected cells. 293EBNA cells were transfected with expression plasmid pJST552 that expressed FLAG-tagged full length human TACI. Cells were harvested 48 hours later using 5 mM EDTA and stained with myc-tagged murine APRIL at various concentrations. No protein control was stained with detection reagents (rabbit anti-murine APRIL and donkey anti-rabbit-PE (Jackson Immnunoresearch)). Staining in FL1 of protein encoded by the cotransfected GFP expression plasmid illustrates expression efficiency.
293EBNA cells were co-transfected with a plasmids expressing full length N-terminally FLAG tagged human TACI (pJST552)(see FIG. 2), and a GFP marker, (AN050). Transfections were performed using Lipofectamine 2000 (LifeTechnologies) according to manufacturer's conditions. Transfection media was DMEM supplemented with 10% FBS, 4 mM glutamine, and 50 μM Z-VAD (BACHEM Bioscience Inc.) Cells were harvested with PBS supplemented with 5 mM EDTA at 24 hours post-transfection. Cells were washed in FACS buffer (PBS-10% FBS-0.02% NaN₃) and resuspended at a density of 5×10⁶ cells/mL. […] The samples were analyzed by FACS and plotted (FIG. 8). Cell gate analyzed is shown as R1. […]

[2] = target: T2, FLAG-tagged soluble muBAFF (murine, UniProt Q9WU72 127-309, limits assumed); experiment: co-immunoprecipitation on protein A-Sepharose, anti-FLAG M2 Western blot
T2 construct: not shown: FLAG tag
Protocol: 250 μl of Optimem containing hTACI(1-160)-Ig was mixed with various FLAG ligands of the TNF family. Some of the ligands were in Optimem while others were anti-FLAG (mAb M2)-purified. The common characteristic was that the amount used was empirically the same (500 ng for purified ligands, i.e. hBAFF, muBAFF, TRAIL, FasL, EDA). Ligands were produced in bacteria (HBAFF, TRAIL) or transiently expressed in 293 EBNA cells (all others). Control Receptors-Fc were mostly used as Optimem supernates, except TNFR1, OX40, LTBR, which were purified over protein-A columns. 1 μg of purified receptors was used. Receptor-Fc proteins (about 1 μg) were mixed with FLAG-ligands (about 500 ng). Volume was adjusted to 1.2 ml with PBS and 5 μl of protein A-Sepharose was added. Incubation was performed for 1 h at 4° C. on a wheel. Beads were harvested by centrifugation and loaded onto a minicolumn (yellow tips with 1 mm diameter frit). Washes were performed by applying vacuum at the bottom of the column to aspirate medium and 2 times 400 μl PBS washes. The dried beads were eluted with 20 μl of Citrate-NaOH pH 2.7 and the eluate was neutralized with 6 μl of 1M Tris-HCl pH 9.0. 10 μl 3x sample buffer plus DTT was added, the sample was boiled and 22 μl loaded for Western blot analysis. […] ECL was used to illuminate the signal. […]

T2 sequence (Q9WU72 127-309 limits assumed): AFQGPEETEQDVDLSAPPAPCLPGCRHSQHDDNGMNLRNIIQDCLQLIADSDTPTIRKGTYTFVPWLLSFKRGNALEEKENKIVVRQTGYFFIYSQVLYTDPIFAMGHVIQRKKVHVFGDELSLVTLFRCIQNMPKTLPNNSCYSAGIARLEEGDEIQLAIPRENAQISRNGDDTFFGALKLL

binding result [1]: binds
B1: myc-tagged murine APRIL (A88), expressed in Pichia pastoris (plasmid pCMM276) (ligand)
chain: EQKLISEEDLNGGGGSKELAVLTQKHKKKHSVLHLVPVNITSKDSDVTEVMWQPVLRRGRGLEAQGDIVRVWDTGIYLLYSQVLFHDVTFTMGQVVSREGQGRRETLFRCIRSMPSDPDRAYNSCYSAGVFHLHQGDIITVKIPRANAKLSLSPHGTFLGFVKL
modifications: glycosylated (as printed in paragraph 69)
notes: also called myc-muAPRIL; Myc-Murine APRIL A88

B2: human TACI(1-160)-Ig fusion protein (plasmid PS882) (Fc fusion)
chain: MSGLGRSRRGGRSRVDQEERFPQGLWTGVAMRSCPEEQYWDPLLGTCMSCKTICNHQSQRTCAAFCRSLSCRKEQGKFYDHLLRDCISCASICGQHPKQCAYFCENKLRSPVNLPPELRRQRSGEVENNSDNSGRYQGLEHRGSEASPALPGLKLSADQV
notes: Used as conditioned medium (Optimem) of 293 cells; also called hTACI(1-160)-Ig; soluble hTACI(1-160)-Ig; not shown: human IgG Fc
binding result [2]: no binding (tested: 500 ng purified ligand)
